Data taken from the supplement of paper PMC7125110.
± gives the standard error. For some assays here: Fewer inactive variants are shown than the library holds.

B1: glmS ribozyme (parent)
chain: AUAAAAGCGCCAGAACUACAGAAAUGUAGUUGACGAGGAGGAGGUUUAUCGAAUUUUCGGCGGAUGCCUCCAAA

Tests used:
Details in all cases: with glucosamine-6-phosphate
glucosamine-6-phosphate [1] = variants of: B1; assay: kcat; higher = faster cleavage; RNA array
How it was run: (§1)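 Weighted Michaelis–Menten fits across concentrations supplied kcat and KM, based on kobs from one- or two-exponential decay fits to normalised per-tile medians. The data came from barcoded ribozyme variants transcribed in situ by E. coli RNA polymerase on sequenced MiSeq chips and tracked at 37 °C by a hybridised Cy3 probe. Glucosamine-6-phosphate (40 μM to 10 mM) in HEPES/KCl/Mg(OAc)2 buffer was flowed in.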

glucosamine-6-phosphate [2] = variants of: B1; assay: self-cleavage kobs at 640 uM GlcN6P; higher = faster cleavage; RNA array
How it was run: as §1

glucosamine-6-phosphate [3] = variants of: B1; assay: KM; higher = weaker cofactor use; RNA array
How it was run: as §1

glucosamine-6-phosphate [4] = variants of: B1; assay: self-cleavage kobs at 160 uM GlcN6P; higher = faster cleavage; RNA array
How it was run: as §1

glucosamine-6-phosphate [5] = variants of: B1; assay: self-cleavage kobs at 2500 uM GlcN6P; higher = faster cleavage; RNA array
How it was run: as §1

glucosamine-6-phosphate [6] = variants of: B1; assay: self-cleavage kobs at 10000 uM GlcN6P; higher = faster cleavage; RNA array
How it was run: as §1

glucosamine-6-phosphate [7] = variants of: B1; assay: self-cleavage kobs at 40 uM GlcN6P; higher = faster cleavage; RNA array
How it was run: as §1

Row | Variant | kcat (glucosamine-6-phosphate [1]) | self-cleavage kobs at 640 uM GlcN6P (glucosamine-6-phosphate [2]) | KM (glucosamine-6-phosphate [3]) | self-cleavage kobs at 160 uM GlcN6P (glucosamine-6-phosphate [4]) | self-cleavage kobs at 2500 uM GlcN6P (glucosamine-6-phosphate [5]) | self-cleavage kobs at 10000 uM GlcN6P (glucosamine-6-phosphate [6]) | self-cleavage kobs at 40 uM GlcN6P (glucosamine-6-phosphate [7])
1 | A12U G29U G59U C68G C70A | 3.34e-05 ± 1.4e-05 s⁻¹ | 4.93e-05 ± 2.3e-05 s⁻¹ | – | – | – | – | –
2 | G38C U49G C68A | 1.34e-05 ± 4.6e-06 s⁻¹ | – | – | – | – | – | –
3 | G29A U31G | 0.000319 ± 2.2e-05 s⁻¹ | 9.51e-05 ± 1.6e-05 s⁻¹ | 1380 ± 180 µM | 3.63e-05 ± 1e-05 s⁻¹ | 0.000217 ± 3.4e-05 s⁻¹ | 0.000272 ± 5.4e-05 s⁻¹ | –
4 | A14G U46A | 0.0109 ± 0.0043 s⁻¹ | 0.00157 ± 0.00055 s⁻¹ | – | 0.000271 ± 7.3e-05 s⁻¹ | 0.0054 ± 0.001 s⁻¹ | 0.00723 ± 0.0012 s⁻¹ | 0.000166 ± 3.1e-05 s⁻¹
5 | A14U U54A | 0.00906 ± 0.0023 s⁻¹ | 0.00228 ± 0.00033 s⁻¹ | 1560 ± 560 µM | 0.000834 ± 0.00014 s⁻¹ | 0.00565 ± 0.00092 s⁻¹ | 0.00909 ± 0.002 s⁻¹ | 0.000324 ± 5.9e-05 s⁻¹
6 | U49A C71U | 1.56e-05 ± 3.2e-06 s⁻¹ | < 1e-05 s⁻¹ | – | – | – | – | –
7 | A64U | 0.00017 ± 6.8e-06 s⁻¹ | 4.12e-05 ± 1.3e-06 s⁻¹ | 1860 ± 190 µM | 1.18e-05 ± 2.4e-06 s⁻¹ | 0.000102 ± 1.9e-06 s⁻¹ | 0.000141 ± 2.2e-06 s⁻¹ | –
8 | A15C U56A | 0.00477 ± 0.0013 s⁻¹ | 0.00107 ± 0.00016 s⁻¹ | 1930 ± 760 µM | – | 0.00218 ± 0.0005 s⁻¹ | 0.00482 ± 0.0008 s⁻¹ | 0.000113 ± 1.7e-05 s⁻¹
9 | A12U A64C | 0.000692 ± 7.8e-05 s⁻¹ | 0.000107 ± 1.6e-05 s⁻¹ | 3580 ± 660 µM | 4.03e-05 ± 1.6e-05 s⁻¹ | 0.000264 ± 3.9e-05 s⁻¹ | 0.000531 ± 7.6e-05 s⁻¹ | –
10 | A48U G66U | 2.75e-05 ± 2.7e-06 s⁻¹ | – | – | – | – | 2.42e-05 ± 8e-06 s⁻¹ | –
11 | C11U U57A | 1.44e-05 ± 2.1e-06 s⁻¹ | – | – | – | – | – | –
12 | A12U G32A | 0.000902 ± 5.6e-05 s⁻¹ | 0.000203 ± 2.1e-05 s⁻¹ | 2110 ± 200 µM | 6.52e-05 ± 9.5e-06 s⁻¹ | 0.000498 ± 5.1e-05 s⁻¹ | 0.000735 ± 0.00013 s⁻¹ | –
13 | C10A U54G | < 1e-05 s⁻¹ | – | – | – | – | – | < 1e-05 s⁻¹
14 | G41A C70U | 0.0433 ± 0.0066 s⁻¹ | 0.0179 ± 0.0025 s⁻¹ | 1100 ± 210 µM | 0.0046 ± 0.0007 s⁻¹ | 0.0385 ± 0.013 s⁻¹ | 0.0374 ± 0.0057 s⁻¹ | 0.00159 ± 0.00013 s⁻¹
15 | G32C U45G | 2.74e-05 ± 2.5e-06 s⁻¹ | – | 2960 ± 1000 µM | < 1e-05 s⁻¹ | – | – | < 1e-05 s⁻¹
16 | U54C C67G | 0.000821 ± 0.00019 s⁻¹ | 0.000519 ± 7.3e-05 s⁻¹ | 534 ± 220 µM | 0.000179 ± 2.6e-05 s⁻¹ | 0.000553 ± 8.6e-05 s⁻¹ | 0.00137 ± 0.00026 s⁻¹ | 5.95e-05 ± 1.1e-05 s⁻¹
